Results published in publication PMC8062120.

Assays:
[1] = target: α-actinin-2 (Homo sapiens) (UniProt P35609); conditions: cited from earlier work
[2] = target: F-actin (rabbit skeletal muscle actin, polymerized) (rabbit) (UniProt P68135)
[3] = target: F-actin (Oryctolagus cuniculus) (UniProt P68135); conditions: cited from earlier work

Chain of Titin Zr-7 (Q8WZ42 692-740): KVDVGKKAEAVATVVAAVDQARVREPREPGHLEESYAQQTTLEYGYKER
Chain of α-actinin-2 (Homo sapiens) (P35609 whole entry): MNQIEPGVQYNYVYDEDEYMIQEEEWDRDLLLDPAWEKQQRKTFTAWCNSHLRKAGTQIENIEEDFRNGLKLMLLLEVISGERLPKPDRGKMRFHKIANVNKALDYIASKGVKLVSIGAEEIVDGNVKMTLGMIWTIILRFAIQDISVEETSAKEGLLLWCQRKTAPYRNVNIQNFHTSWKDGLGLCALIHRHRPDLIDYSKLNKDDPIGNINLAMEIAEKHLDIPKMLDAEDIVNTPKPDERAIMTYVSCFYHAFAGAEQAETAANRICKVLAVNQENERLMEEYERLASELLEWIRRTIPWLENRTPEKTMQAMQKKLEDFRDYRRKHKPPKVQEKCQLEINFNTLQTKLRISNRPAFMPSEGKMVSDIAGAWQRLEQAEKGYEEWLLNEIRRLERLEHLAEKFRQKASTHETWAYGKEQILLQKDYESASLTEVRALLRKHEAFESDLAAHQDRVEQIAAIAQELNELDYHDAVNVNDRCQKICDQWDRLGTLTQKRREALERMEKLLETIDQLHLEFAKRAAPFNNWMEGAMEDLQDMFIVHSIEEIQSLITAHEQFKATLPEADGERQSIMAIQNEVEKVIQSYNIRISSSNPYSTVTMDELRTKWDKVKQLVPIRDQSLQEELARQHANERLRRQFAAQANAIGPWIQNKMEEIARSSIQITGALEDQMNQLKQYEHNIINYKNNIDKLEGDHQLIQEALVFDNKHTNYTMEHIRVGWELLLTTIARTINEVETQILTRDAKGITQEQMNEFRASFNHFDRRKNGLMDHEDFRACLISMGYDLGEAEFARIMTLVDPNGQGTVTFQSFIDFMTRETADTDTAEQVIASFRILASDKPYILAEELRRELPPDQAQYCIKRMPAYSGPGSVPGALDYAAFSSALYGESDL

Row | Substance | FRAP in Z-discs of C2C12 myotubes, median half-time of fluorescence recovery [2] | other results
1 | Titin Zr-7 (from UniProt Q8WZ42) | – | Kd [1]: 0.48 µM
2 | Palladin (from UniProt Q8WX93) | – | Kd [3]: 2.1 µM
3 | N-terminal EGFP fusion of myotilin K354A (from UniProt Q9UBF9 1-498) (natural protein) | 48.2 s | –
4 | N-terminal EGFP fusion of myotilin, wild type (from UniProt Q9UBF9 1-498) (natural protein) | 72.4 s | –

Second part, led by results:

Row | FRAP in Z-discs of C2C12 myotubes, median half-time of fluorescence recovery [2] | Substance | other results
5 | 35.5 s | N-terminal EGFP fusion of myotilin K354/359A (from UniProt Q9UBF9 1-498) (natural protein) | –
6 | 64.1 s | N-terminal EGFP fusion of myotilin K359A (from UniProt Q9UBF9 1-498) (natural protein) | –
7 | 32.3 s | N-terminal EGFP fusion of myotilin K354/358/359A (from UniProt Q9UBF9 1-498) (natural protein) | –
